This assay deals with pooled human IgG (human). Put plainly: cell-based or functional assay.

Residue numbers refer to the chain shown, from its start.

B1: VRT-23 (Fc fusion)
chain: SQTEDSESLQRLRDIEDFQAEKKMQNVVYTKWLDGVDVKDHDFRKIVDGNIAYYATPLLNGRGFYDINKDFNRDNDKCAAAVAANMFHYWLDINRDNVDRFLRQNPEKHGIIELPDEQLKLSDFLNTYESDHGYRDKSKLFDFISNNFNKPVWTDKLLDNYINGYAYNYKYGRTIEDSTKNTSKINFFKEVFNEKILTNIHSIRNQNEFSVLLSEALYTGKAIGLSYGPAGLRHSLGHIISVWGADLDADGNVVAIYVTDSDDKKLTIGDERVGLKRYKISTDDENRLRLTAYEETHNTGGQIRGLWTLDTGKYAWADYFDKTEQTGTDQAEQDKTHTCPPCPAPEAAGAPSVFLFPPKPKDTLMISRTPEVTCVVVDVSHEDPEVKFNWYVDGVEVHNAKTKPREEQQNSTYRVVSVLTVLHQDWLNGKEYKCKVSNKALKAPIEKTISKAKGQPREPQVYTLPPSRDELTKNQVSLTCLVKGFYPSDIAVEWESNGQPENNYKTTPPVLDSDGSFFLYSKLTVDKSRWQQGNVFSCSVMHEALHNHYTQKSLSLSPG
B1 showed an Enzyme Activity Endpoint Assay: Fab′2 of 0 ng/µL, an Enzyme Activity Endpoint Assay: Fc of 29 ng/µL, an Enzyme Activity Endpoint Assay: IgG of 1010 ng/µL and an Enzyme Activity Endpoint Assay: scIgG of 20 ng/µL.

B2: VRT-24 (Fc fusion)
chain: VTSVWTKGVTPPANFTQGEDVFHAPYKANQGWYDITKTFNGKDNLLCGAATAGNMLHWWFDQNKDQIEAYLKEHPEKQKINFNGEQLFDVKEAIDTKDDQTNSKLFEYFKEKAFPYLSTKHLGVFPDHVLDMFINGYRLSLTNHGPTPVKEGSKDKRGGIFDAVFTRGVQSKLLTSRHDFKEKTLKEISDLIKQELTEGKALALSHTYANVRINHVINLWGADFDSNGNLEAIYVTDSDTNASIGMKKYFVGVNSAGKVAISAKEIEDDNIGAQVLGLFTLSTGQDIWNQTNDKTHTCPPCPAPEAAGAPSVFLFPPKPKDTLMISRTPEVTCVVVDVSHEDPEVKFNWYVDGVEVHNAKTKPREEQQNSTYRVVSVLTVLHQDWLNGKEYKCKVSNKALKAPIEKTISKAKGQPREPQVYTLPPSRDELTKNQVSLTCLVKGFYPSDIAVEWESNGQPENNYKTTPPVLDSDGSFFLYSKLTVDKSRWQQGNVFSCSVMHEALHNHYTQKSLSLSPG
Consider B2, for which the Enzyme Activity Endpoint Assay: Fab′2 is 0 ng/µL, the Enzyme Activity Endpoint Assay: Fc came to 187 ng/µL, the Enzyme Activity Endpoint Assay: IgG worked out at 392 ng/µL and the Enzyme Activity Endpoint Assay: scIgG is 249 ng/µL.

B3: VRT-25 (Fc fusion)
chain: B2 chain with K27V, A69R, D99S, N102D, A203G, N227E, E231K, E267K, D268E
B3 registered an Enzyme Activity Endpoint Assay: Fab′2 of 12 ng/µL, an Enzyme Activity Endpoint Assay: Fc of 204 ng/µL, an Enzyme Activity Endpoint Assay: IgG of 183 ng/µL and an Enzyme Activity Endpoint Assay: scIgG of 284 ng/µL.

B4: VRT-27 (Fc fusion)
chain: VTSVWTKGVTPPADFTQGEDVFHAPYVANQGWYDITKTFNGKDNLLCGAATAGNMLHWWFDQNKEYIEAYLKKHPEKQKIIFGDQELLDVRKAINTKGSQKNSELFNYFRDKAFPNLSARRLGVFPDLVLDMFINGYYLNVTKTQTTDVNRTYQEKDKRGGIFDAVFTRGVQSKLLTSRHDFKEKGLKEISDLIKQELTEGKALGLSHTYANVRINHVINLWGADFDSDGNLKAIYVTDSDTNASIGMKKYFVGVNSAGKVAISAKEIKEDNIGAQVLGLFTLSTGQDIWNQTNDKTHTCPPCPAPEAAGAPSVFLFPPKPKDTLMISRTPEVTCVVVDVSHEDPEVKFNWYVDGVEVHNAKTKPREEQQNSTYRVVSVLTVLHQDWLNGKEYKCKVSNKALKAPIEKTISKAKGQPREPQVYTLPPSRDELTKNQVSLTCLVKGFYPSDIAVEWESNGQPENNYKTTPPVLDSDGSFFLYSKLTVDKSRWQQGNVFSCSVMHEALHNHYTQKSLSLSPG
As for B4, the Enzyme Activity Endpoint Assay: Fab′2 was 0 ng/µL, the Enzyme Activity Endpoint Assay: Fc is 92 ng/µL, the Enzyme Activity Endpoint Assay: IgG is 1150 ng/µL and the Enzyme Activity Endpoint Assay: scIgG came to 33 ng/µL.

B5: VRT-30 (Fc fusion)
chain: QITSVWTKGVTPPTPEQFRYNNEDVIHAPYLANQGWYDITKTFNGKDNLLCGAATAGNMLHWWFDQNKTEIEAYLSKHPEKQKIIFNNQELFDLKAAIDTKDSQTNSQLFNYFRDKAFPGLSARQLGVFPDLVLDMFINGYYLNVFKTQSTDVNRPYQDKDKRGGIFDAVFTRGVQTTLLTARHDLKNKTLNDISTLIKQELTEGKALALSHTYANVRISHVINLWGADFNAEGNLEAIYVTDSDANASIGMKKYFVGVNAHGKVAISAKKIEGENIGAQVLGLFTLSSGKDIWQKLSDKTHTCPPCPAPEAAGAPSVFLFPPKPKDTLMISRTPEVTCVVVDVSHEDPEVKFNWYVDGVEVHNAKTKPREEQQNSTYRVVSVLTVLHQDWLNGKEYKCKVSNKALKAPIEKTISKAKGQPREPQVYTLPPSRDELTKNQVSLTCLVKGFYPSDIAVEWESNGQPENNYKTTPPVLDSDGSFFLYSKLTVDKSRWQQGNVFSCSVMHEALHNHYTQKSLSLSPG
Molecule B5 returned an Enzyme Activity Endpoint Assay: Fab′2 of 0 ng/µL, an Enzyme Activity Endpoint Assay: Fc of 46 ng/µL, an Enzyme Activity Endpoint Assay: IgG of 986 ng/µL and an Enzyme Activity Endpoint Assay: scIgG of 22 ng/µL.

B6: VRT-32 (Fc fusion)
chain: B5 chain with I26F, L31T, N33H, N44D, Q108A, L197I, K206R, A246S, H262S
B6 displayed an Enzyme Activity Endpoint Assay: Fab′2 of 0 ng/µL, an Enzyme Activity Endpoint Assay: Fc of 96 ng/µL, an Enzyme Activity Endpoint Assay: IgG of 803 ng/µL and an Enzyme Activity Endpoint Assay: scIgG of 79 ng/µL.

B7: VRT-31 (Fc fusion)
chain: B5 chain with P13L, S76K, T190G, D193E, A246S
Molecule B7 returned an Enzyme Activity Endpoint Assay: Fab′2 of 0 ng/µL, an Enzyme Activity Endpoint Assay: Fc of 27 ng/µL, an Enzyme Activity Endpoint Assay: IgG of 1020 ng/µL and an Enzyme Activity Endpoint Assay: scIgG of 21 ng/µL.

B8: VRT-28 (Fc fusion)
chain: ITSVWTKGVTPPAKFTQGEDVFHAPYVANQGWYDITKTFNGKDNLLCGAATAGNMLHWWFDQNKEEIEAYLKKHPEKQKIIFGDQELLDVRKVINTKDSQTNSALFNYFKDKAFPNLSARRLGVFPDLVLDMFINGYYLNVYKTQTTDVNRTYQTKDRRGGIFDAVFTRGVQSKLLTERHDFKEKTLKEISDLIKQELTEGKALGLSHTYANVRINHVINLWGADFDSNGNLEAIYVTDSDTNASIGMKKYFVGVNSAGKVAISAKEIKEDNIGAQVLGLFTLSTGQDIWNQTNDKTHTCPPCPAPEAAGAPSVFLFPPKPKDTLMISRTPEVTCVVVDVSHEDPEVKFNWYVDGVEVHNAKTKPREEQQNSTYRVVSVLTVLHQDWLNGKEYKCKVSNKALKAPIEKTISKAKGQPREPQVYTLPPSRDELTKNQVSLTCLVKGFYPSDIAVEWESNGQPENNYKTTPPVLDSDGSFFLYSKLTVDKSRWQQGNVFSCSVMHEALHNHYTQKSLSLSPG
For the molecule B8, the Enzyme Activity Endpoint Assay: Fab′2 was found to be 0 ng/µL, the Enzyme Activity Endpoint Assay: Fc amounted to 3 ng/µL, the Enzyme Activity Endpoint Assay: IgG worked out at 987 ng/µL and the Enzyme Activity Endpoint Assay: scIgG amounted to 22 ng/µL.

B9: VRT-26 (Fc fusion)
chain: VTSVWTKGVTPPTNFTYGEDVLHAPYVANQGWYDITKTFNGKDNLLCGAATAGNMLHWWFDQNKEQIENYLKKHPEKQKINFNGEQLFDVKEAIDTKDSQLDSKLFEYFKEKAFPYLSTKHLGVFPDHVIDMFINGYRLSLTNHGPTPVKRGSKDKRGGIFDAVFTRGVQSKLLTNRHDFKEKTLKEISDLIKQELTEGKALGISHTYANVRINHVINLWGADFDAEGNLEAIYVTDSDTNASIGMKKYFVGVNSNGKVAISAKEIEEDNIGAQVLGLFTLSTGQDIWNQTNDKTHTCPPCPAPEAAGAPSVFLFPPKPKDTLMISRTPEVTCVVVDVSHEDPEVKFNWYVDGVEVHNAKTKPREEQQNSTYRVVSVLTVLHQDWLNGKEYKCKVSNKALKAPIEKTISKAKGQPREPQVYTLPPSRDELTKNQVSLTCLVKGFYPSDIAVEWESNGQPENNYKTTPPVLDSDGSFFLYSKLTVDKSRWQQGNVFSCSVMHEALHNHYTQKSLSLSPG
Molecule B9 showed an Enzyme Activity Endpoint Assay: Fab′2 of 0 ng/µL, an Enzyme Activity Endpoint Assay: Fc of 213 ng/µL, an Enzyme Activity Endpoint Assay: IgG of 303 ng/µL and an Enzyme Activity Endpoint Assay: scIgG of 342 ng/µL.

B10: VRT-22 (Fc fusion)
chain: QITSVWTKGVTPLTPEQFRYYNEDVIHAPYLAHQGWYDITKAFDGKDNLLCGAATAGNMLHWWFDQNKTEIEAYLSKHPEKQKIIFKNQELFDLKAAIDTKDSQTNSQLFNYFRDKAFPGLSARQLGVFPDLVLDMFINGYYLNVFKTQSTDVNRPYQDKDKRGGIFDAVFTRGVQTTLLTARHDLKNKGLNDISTIIKQELTEGRALALSHTYANVRISHVINLWGADFNAEGNLEAIYVTDSDTRASIGMKKYFVGINAHGHVAISAKKIEGENIGAQVLGLFTLSSGKDIWQKLSDKTHTCPPCPAPEAAGAPSVFLFPPKPKDTLMISRTPEVTCVVVDVSHEDPEVKFNWYVDGVEVHNAKTKPREEQQNSTYRVVSVLTVLHQDWLNGKEYKCKVSNKALKAPIEKTISKAKGQPREPQVYTLPPSRDELTKNQVSLTCLVKGFYPSDIAVEWESNGQPENNYKTTPPVLDSDGSFFLYSKLTVDKSRWQQGNVFSCSVMHEALHNHYTQKSLSLSPG
Consider B10, for which the Enzyme Activity Endpoint Assay: Fab′2 worked out at 0 ng/µL, the Enzyme Activity Endpoint Assay: Fc is 31 ng/µL, the Enzyme Activity Endpoint Assay: IgG came to 1010 ng/µL and the Enzyme Activity Endpoint Assay: scIgG came to 21 ng/µL.
